# Reference: patent US20100221798
# Biological target: octadecenoyl-ACP
protein,measurement,value
Synechococcus elongatus PCC7942 orf1594 protein (YP-400611; Synpcc7942-1594; acyl-ACP reductase) with C-terminal His-tag (protein) MFGLIGHLTSLEQARDVSRRMGYDEYADQGLEFWSSAPPQIVDEITVTSATGKVIHGRYIESCFLPEMLAARRFKTATRKVLNAMSHAQKHGIDISALGGFTSIIFENFDLASLRQVRDTTLEFERFTTGNTHTAYVICRQVEAAAKTLGIDITQATVAVVGATGDIGSAVCRWLDLKLGVGDLILTARNQERLDNLQAELGRGKILPLEAALPEADFIVWVASMPQGVVIDPATLKQPCVLIDGGYPKNLGSKVQGEGIYVLNGGVVEHCFDIDWQIMSAAEMARPERQMFACFAEAMLLEFEGWHTNFSWGRNQITIEKMEAIGEASVRHGFQPLALAI,"Km for the reduction of octadecenoyl-ACP in the presence of 2 mM NADPH (in vitro reductase assay, aldehyde formed measured by GC/MS)",7.8 ± 2 µM
